Assay [1] deals with bovine Hsc70 R447H, recombinant mutant (bovine, UniProt P19120 1-650, R447H). Briefly: pull-down.
Assay [2] concerns the target bovine Hsc70, recombinant wild type (bovine, UniProt P19120 1-650). Briefly: pull-down.

Sequence of bovine Hsc70, recombinant wild type (P19120 whole entry): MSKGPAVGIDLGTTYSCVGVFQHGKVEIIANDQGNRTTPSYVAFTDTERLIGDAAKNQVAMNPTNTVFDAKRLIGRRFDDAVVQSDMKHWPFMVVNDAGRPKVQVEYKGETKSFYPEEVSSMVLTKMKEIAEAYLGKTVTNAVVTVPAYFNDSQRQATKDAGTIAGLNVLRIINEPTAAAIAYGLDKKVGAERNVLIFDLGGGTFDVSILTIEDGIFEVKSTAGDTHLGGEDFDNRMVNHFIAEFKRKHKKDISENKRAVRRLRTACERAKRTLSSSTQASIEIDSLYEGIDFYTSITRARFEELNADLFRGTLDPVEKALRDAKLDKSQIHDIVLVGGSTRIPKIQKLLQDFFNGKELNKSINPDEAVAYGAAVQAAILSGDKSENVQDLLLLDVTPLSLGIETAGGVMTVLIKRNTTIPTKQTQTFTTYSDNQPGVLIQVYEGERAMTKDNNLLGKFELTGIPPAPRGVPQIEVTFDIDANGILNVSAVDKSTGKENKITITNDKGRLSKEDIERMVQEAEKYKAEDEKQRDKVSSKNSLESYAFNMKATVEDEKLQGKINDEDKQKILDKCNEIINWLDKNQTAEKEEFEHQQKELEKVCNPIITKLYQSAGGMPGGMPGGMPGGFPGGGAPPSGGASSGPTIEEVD
Sequence of bovine Hsc70 R447H, recombinant mutant (P19120 whole entry R447H): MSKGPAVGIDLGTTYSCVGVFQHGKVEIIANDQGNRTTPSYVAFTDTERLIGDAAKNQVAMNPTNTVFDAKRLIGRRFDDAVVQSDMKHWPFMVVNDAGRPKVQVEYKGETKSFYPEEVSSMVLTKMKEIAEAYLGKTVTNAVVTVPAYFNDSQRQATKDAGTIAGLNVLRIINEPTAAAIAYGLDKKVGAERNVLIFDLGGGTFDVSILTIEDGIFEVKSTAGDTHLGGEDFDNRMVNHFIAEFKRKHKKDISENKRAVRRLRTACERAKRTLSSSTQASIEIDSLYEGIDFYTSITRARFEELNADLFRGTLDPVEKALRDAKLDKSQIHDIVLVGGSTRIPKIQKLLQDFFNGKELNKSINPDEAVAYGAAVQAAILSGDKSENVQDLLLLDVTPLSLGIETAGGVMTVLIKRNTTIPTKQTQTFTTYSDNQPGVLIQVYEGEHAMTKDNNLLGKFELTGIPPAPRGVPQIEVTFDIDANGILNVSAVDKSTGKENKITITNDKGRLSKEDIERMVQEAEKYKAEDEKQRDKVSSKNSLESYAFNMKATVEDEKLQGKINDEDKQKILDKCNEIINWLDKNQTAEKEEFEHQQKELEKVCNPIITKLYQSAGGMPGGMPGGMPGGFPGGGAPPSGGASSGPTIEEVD

B1: GST-J^aux, J-domain of bovine auxilin (residues 813-910) fused to GST (domain or fragment, UniProt Q27974 813-910, looked up)
chain: DPEKLKILEWIEGKERNIRALLSTMHTVLWAGETKWKPVGMADLVTPEQVKKVYRKAVLVVHPDKATGQPYEQYAKMIFMELNDAWSEFENQGQKPLY
Take B1: the binding result in assay [1] and in assay [2] was “binds” throughout.

The values above are taken from publication PMC2173062 (The Journal of Cell Biology, 2002).
